Data: PMC9520026, “Densely methylated DNA traps Methyl-CpG–binding domain protein 2 but permits free diffusion by Methyl-CpG–binding domain protein 3”

Key:
[1] = target: T1, MBD2sc (2H,15N, tag cleaved) (human, UniProt Q9UBB5 150-393+Q86YP4:137-178, internal_change); assay: NMR; FA: 50 mM Hepes pH 7.5, 100 mM NaCl, 1 mM MgCl2, 10 nM DNA, temperature not stated; SPR: 50 mM Hepes pH 7.5, 150 mM NaCl, 1 mM MgCl2, 1 mM TCEP, 0.05% Tween-20; NMR: 10 mM NaPO4 pH 6.5, 150 mM NaCl, 1 mM DTT, 10% 2H2O, 25 C; conditions: protein: recombinant; tags: none (thioredoxin-His6 removed by TEV); blunt
[2] = target: T1, MBD2sc (2H,15N, tag cleaved); assay: NMR; fast exchange between both sites; FA: 50 mM Hepes pH 7.5, 100 mM NaCl, 1 mM MgCl2, 10 nM DNA, temperature not stated; SPR: 50 mM Hepes pH 7.5, 150 mM NaCl, 1 mM MgCl2, 1 mM TCEP, 0.05% Tween-20; NMR: 10 mM NaPO4 pH 6.5, 150 mM NaCl, 1 mM DTT, 10% 2H2O, 25 C; conditions: protein: recombinant; tags: none (thioredoxin-His6 removed by TEV); blunt
MBD3sc [3] = target: T2, MBD3sc (human, UniProt O95983 1-249+Q86YP4:137-178, internal_change); assay: fluorescence anisotropy; FA: 50 mM Hepes pH 7.5, 100 mM NaCl, 1 mM MgCl2, 10 nM DNA, temperature not stated; SPR: 50 mM Hepes pH 7.5, 150 mM NaCl, 1 mM MgCl2, 1 mM TCEP, 0.05% Tween-20; NMR: 10 mM NaPO4 pH 6.5, 150 mM NaCl, 1 mM DTT, 10% 2H2O, 25 C; conditions: protein: recombinant; tags: N-terminal thioredoxin-His6-TEV site (removal stated only for NMR); label: 5' 6-FAM on strand 1; blunt
MBD2sc [4] = target: T3, MBD2sc (human, UniProt Q9UBB5 150-393+Q86YP4:137-178, internal_change); assay: as above; conditions: protein: recombinant; tags: N-terminal thioredoxin-His6-TEV site (removal stated only for NMR); label: 5' 6-FAM on strand 1; blunt
MBD3sc [5] = target: T2, MBD3sc; assay: SPR; FA: 50 mM Hepes pH 7.5, 100 mM NaCl, 1 mM MgCl2, 10 nM DNA, temperature not stated; SPR: 50 mM Hepes pH 7.5, 150 mM NaCl, 1 mM MgCl2, 1 mM TCEP, 0.05% Tween-20; NMR: 10 mM NaPO4 pH 6.5, 150 mM NaCl, 1 mM DTT, 10% 2H2O, 25 C; conditions: protein: recombinant; tags: N-terminal thioredoxin-His6-TEV site (removal stated only for NMR); blunt
MBD2sc [6] = target: T3, MBD2sc; assay: as above; conditions: protein: recombinant; tags: N-terminal thioredoxin-His6-TEV site (removal stated only for NMR); blunt

T2 sequence (O95983 other isoform, or with tags, fused parts or gaps): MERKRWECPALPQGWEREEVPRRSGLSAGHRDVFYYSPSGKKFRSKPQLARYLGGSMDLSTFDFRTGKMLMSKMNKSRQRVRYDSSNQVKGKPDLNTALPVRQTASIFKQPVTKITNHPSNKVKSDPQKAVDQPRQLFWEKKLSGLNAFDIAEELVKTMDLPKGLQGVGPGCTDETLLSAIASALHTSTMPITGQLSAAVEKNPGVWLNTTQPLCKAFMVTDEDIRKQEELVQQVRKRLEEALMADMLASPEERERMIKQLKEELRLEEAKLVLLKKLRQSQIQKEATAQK
T3 sequence (Q9UBB5 other isoform, or with tags, fused parts or gaps): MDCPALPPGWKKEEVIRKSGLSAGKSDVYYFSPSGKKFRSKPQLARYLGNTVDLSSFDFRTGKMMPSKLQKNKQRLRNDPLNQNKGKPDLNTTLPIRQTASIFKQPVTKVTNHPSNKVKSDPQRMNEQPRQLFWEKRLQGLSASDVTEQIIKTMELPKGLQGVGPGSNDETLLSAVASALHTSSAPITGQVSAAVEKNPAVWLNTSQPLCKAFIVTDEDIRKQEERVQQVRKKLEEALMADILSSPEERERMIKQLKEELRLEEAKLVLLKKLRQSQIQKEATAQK
T1 sequence (Q9UBB5 other isoform, or with tags, fused parts or gaps): as above

B1: 38 bp, first CpG methylated (dsDNA)
DNA 1: GGAGGCGCTCGGCGGCAGCCTGGAACGGAATTCTTCTA
DNA 2: TAGAAGAATTCCGTTCCAGGCTGCCGCCGAGCGCCTCC
modifications: 5-methylcytosine at C10 of strand 1 and C28 of strand 2
B1: binds [1].

B2: 38 bp, second CpG methylated (dsDNA)
DNA 1: GGAGGCGCTCGGCGGCAGCCTGGAACGGAATTCTTCTA
DNA 2: TAGAAGAATTCCGTTCCAGGCTGCCGCCGAGCGCCTCC
modifications: 5-methylcytosine at C26 of strand 1 and C12 of strand 2
B2: binds [1].

B3: 38 bp, both CpG methylated (dsDNA)
DNA 1: GGAGGCGCTCGGCGGCAGCCTGGAACGGAATTCTTCTA
DNA 2: TAGAAGAATTCCGTTCCAGGCTGCCGCCGAGCGCCTCC
modifications: 5-methylcytosine at C10, C26 of strand 1 and C12, C28 of strand 2
B3: binds [2].

B4: 17 bp CpG FAM (unmethylated) (dsDNA)
DNA 1: CTGCCGCCGAGCGCCTC
DNA 2: GAGGCGCTCGGCGGCAG
Binder B4 has a Kd (MBD3sc [3]) of 8.1 ± 0.4 µM and a Kd (MBD2sc [4]) of 2.8 ± 0.1 µM.

B5: 17 bp CpG-free FAM (dsDNA)
DNA 1: CTGGCCCCAGGGCCCTC
DNA 2: GAGGGCCCTGGGGCCAG
B5 was tested, and the Kd (MBD3sc [3]) was 14.2 ± 0.3 µM and the Kd (MBD2sc [4]) was 9.1 ± 0.4 µM.

B6: 17 bp CpG biotin (SPR) (dsDNA)
DNA 1: CTGCCGCCGAGCGCCTC
DNA 2: GAGGCGCTCGGCGGCAG
B6 showed a Kd (MBD3sc [5]) of 1.02 ± 0.01 µM and a Kd (MBD2sc [6]) of 1.24 ± 0.08 µM.

B7: 17 bp mCpG biotin (SPR) (dsDNA)
DNA 1: CTGCCGCCGAGCGCCTC
DNA 2: GAGGCGCTCGGCGGCAG
modifications: 5-methylcytosine at C8 of strand 1 and C9 of strand 2
Binder B7 has a Kd (MBD3sc [5]) of 1.2 ± 0.2 µM and a Kd (MBD2sc [6]) of 0.011 ± 0.001 µM.

B8: 17 bp mCpG FAM (dsDNA)
DNA 1: CTGCCGCCGAGCGCCTC
DNA 2: GAGGCGCTCGGCGGCAG
modifications: 5-methylcytosine at C8 of strand 1 and C9 of strand 2 (symmetric)
B8 showed a Kd (MBD3sc [3]) of 5.9 ± 0.4 µM and a Kd (MBD2sc [4]) of 0.007 ± 0.002 µM.
